Test results taken from US20170015742A1 (published 2017).

Key:
PDGF-BB = PDGF-BB (UniProt P01127 82-190); test: SPR (Biacore), DVD-Ig captured by anti-human Fc, antigen injected
Method: (§1) For example, approximately 9000 RU of goat anti-human Fc specific polyclonal antibody (Thermo Fisher Scientific Inc., Rockford, Ill.) diluted in 10 mM sodium acetate (pH 4.5) is directly immobilized across a CM5 research grade biosensor chip using a standard amine coupling kit according to manufacturer's instructions and procedures at 25 μg/ml. Unreacted moieties on the biosensor surface were blocked with ethanolamine. For kinetic analysis, rate equations derived from the 1:1 Langmuir binding model were fitted simultaneously to multiple antigen injections (using global fit analysis) with the use of Scrubber 2 (BioLogic Software), Biacore Biaevaluation 4.0.1 software or Biacore T100 Evaluation software. Purified antibodies or DVD-Ig molecules were diluted in running buffer for capture across goat anti-human Fc reaction surfaces. Antibodies or DVD-Ig molecules to be captured as a ligand (1 μg/ml) were injected over reaction matrices at a flow rate of 10 μl/minute. During the assay, all measurements were referenced against the capture surface alone (i.e., with no captured antibody or DVD-Ig molecule). […] The equilibrium dissociation constant KD (M) of the reaction between antibodies and the target antigen was then calculated from the kinetic rate constants by the following formula: KD=Koff/Kₒₙ. Binding was recorded as a function of time and kinetic rate constants were calculated.

VEGF-A = VEGF-A (UniProt P15692-4 27-191, limits assumed); test: as above
Method: as §1

Chain of PDGF-BB (P01127 82-190): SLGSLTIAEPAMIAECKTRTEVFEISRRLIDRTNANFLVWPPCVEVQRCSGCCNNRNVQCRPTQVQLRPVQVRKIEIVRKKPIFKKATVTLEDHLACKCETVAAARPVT
Chain of VEGF-A (P15692 other isoform, or with tags, fused parts or gaps limits assumed): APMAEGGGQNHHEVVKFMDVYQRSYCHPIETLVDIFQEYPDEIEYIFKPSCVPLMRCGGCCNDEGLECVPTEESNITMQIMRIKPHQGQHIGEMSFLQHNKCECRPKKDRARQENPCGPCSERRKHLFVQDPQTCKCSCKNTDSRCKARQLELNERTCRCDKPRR

B1: 9E10.1_GS_3E2.1 (PR-1610562) (bispecific antibody, human IgG1, kappa, L234A L235A)
heavy: EIQLVQSGSELKKPGASVKVSCKASGYTFTNYGMYWVKQAPGQGLEYMGWIDTETGRPTYADDFKGRFVFSLDTSVSTAYLQISSLKAEDTAVYFCARWSGDTTGIRGPWFAYWGQGTLVTVSSGGGGSGGGGSEVQLVQSGAEVKKPGSSVKVSCKASGYTFTESYMYWVKQAPGQGLELIGRIDPEDGSTDYVEKFKNKATLTADKSTSTAYMELSSLRSEDTAVYFCARFGARSYFYPMDAWGQGTTVTVSSASTKGPSVFPLAPSSKSTSGGTAALGCLVKDYFPEPVTVSWNSGALTSGVHTFPAVLQSSGLYSLSSVVTVPSSSLGTQTYICNVNHKPSNTKVDKKVEPKSCDKTHTCPPCPAPEAAGGPSVFLFPPKPKDTLMISRTPEVTCVVVDVSHEDPEVKFNWYVDGVEVHNAKTKPREEQYNSTYRVVSVLTVLHQDWLNGKEYKCKVSNKALPAPIEKTISKAKGQPREPQVYTLPPSREEMTKNQVSLTCLVKGFYPSDIAVEWESNGQPENNYKTTPPVLDSDGSFFLYSKLTVDKSRWQQGNVFSCSVMHEALHNAYTQKSLSLSPGK
light: DIRMTQSPSSLSASVGDRVTIECLASEDIYSDLAWYQQKPGKSPKLLIYNANGLQNGVPSRFSGSGSGTDYSLTISSLQPEDVATYFCQQYNYFPGTFGQGTKLEIKGGSGGGGSGGETVLTQSPATLSLSPGERATLSCRASESVSTLMHWYQQKPGQQPRLLIYGASNLESGVPARFSGSGSGTDFTLTISSLEPEDFAVYFCQQSWNDPWTFGGGTKVEIKRTVAAPSVFIFPPSDEQLKSGTASVVCLLNNFYPREAKVQWKVDNALQSGNSQESVTEQDSKDSTYSLSSTLTLSKADYEKHKVYACEVTHQGLSSPVTKSFNRGEC
notes: DVD-Ig: outer hBEW-9E10.1 (VEGF), inner hBFU-3E2.1 (PDGF), linkers GS-H10 / GS-L10(dR); Human IgG1 L234A, L235A, H435A with kappa light chain
**Q.** B1 was tested. Which Kd (PDGF-BB) did it give?
**A.** 21 pM

**Q.** What about the kon (PDGF-BB) of the same binder?
**A.** 4.1e+07 M⁻¹ s⁻¹

**Q.** What about the Kd (VEGF-A) of the same binder?
**A.** 2.4 pM

**Q.** What about the kon (VEGF-A) of the same binder?
**A.** 9.3e+06 M⁻¹ s⁻¹

B2: 9E10.6_GS_3E2.1 (PR-1610563) (bispecific antibody, human IgG1, kappa, L234A L235A)
heavy: EVQLVQSGAEVKKPGSSVKVSCKASGYTFTNYGMYWVRQAPGQGLEWMGWIDTETGRPTYADDFKGRFTFTADKSTSTAYMELSSLRSEDTAVYYCARWSGDTTGIRGPWFAYWGQGTLVTVSSGGGGSGGGGSEVQLVQSGAEVKKPGSSVKVSCKASGYTFTESYMYWVKQAPGQGLELIGRIDPEDGSTDYVEKFKNKATLTADKSTSTAYMELSSLRSEDTAVYFCARFGARSYFYPMDAWGQGTTVTVSSASTKGPSVFPLAPSSKSTSGGTAALGCLVKDYFPEPVTVSWNSGALTSGVHTFPAVLQSSGLYSLSSVVTVPSSSLGTQTYICNVNHKPSNTKVDKKVEPKSCDKTHTCPPCPAPEAAGGPSVFLFPPKPKDTLMISRTPEVTCVVVDVSHEDPEVKFNWYVDGVEVHNAKTKPREEQYNSTYRVVSVLTVLHQDWLNGKEYKCKVSNKALPAPIEKTISKAKGQPREPQVYTLPPSREEMTKNQVSLTCLVKGFYPSDIAVEWESNGQPENNYKTTPPVLDSDGSFFLYSKLTVDKSRWQQGNVFSCSVMHEALHNAYTQKSLSLSPGK
light: DIRMTQSPSSLSASVGDRVTITCLASEDIYSDLAWYQQKPGKSPKLLIYNANGLQNGVPSRFSGSGSGTDYTLTISSLQPEDVATYFCQQYNYFPGTFGQGTKLEIKGGSGGGGSGGETVLTQSPATLSLSPGERATLSCRASESVSTLMHWYQQKPGQQPRLLIYGASNLESGVPARFSGSGSGTDFTLTISSLEPEDFAVYFCQQSWNDPWTFGGGTKVEIKRTVAAPSVFIFPPSDEQLKSGTASVVCLLNNFYPREAKVQWKVDNALQSGNSQESVTEQDSKDSTYSLSSTLTLSKADYEKHKVYACEVTHQGLSSPVTKSFNRGEC
notes: DVD-Ig: outer hBEW-9E10.6 (VEGF), inner hBFU-3E2.1 (PDGF), linkers GS-H10 / GS-L10(dR); Human IgG1 L234A, L235A, H435A with kappa light chain
**Q.** Which Kd (PDGF-BB) does the source give for B2 here?
**A.** 36 pM

**Q.** What about the kon (PDGF-BB) of the same binder?
**A.** 5.8e+06 M⁻¹ s⁻¹

**Q.** And the Kd (VEGF-A)?
**A.** 3 pM

**Q.** And the kon (VEGF-A)?
**A.** 8.6e+06 M⁻¹ s⁻¹

B3: 9E10.1_GS_CL-33675 (PR-1610561) (bispecific antibody, human IgG1, kappa, L234A L235A)
heavy: EIQLVQSGSELKKPGASVKVSCKASGYTFTNYGMYWVKQAPGQGLEYMGWIDTETGRPTYADDFKGRFVFSLDTSVSTAYLQISSLKAEDTAVYFCARWSGDTTGIRGPWFAYWGQGTLVTVSSGGGGSGGGGSEVTLRESGPALVKPTQTLTLTCTFSGFSLSTYGMGVGWIRQPPGKALEWLANIWWDDDKYYNPSLKNRLTISKDTSKNQVVLTMTNMDPVDTATYYCARIESSGPKYSFDYWGQGTMVTVSSASTKGPSVFPLAPSSKSTSGGTAALGCLVKDYFPEPVTVSWNSGALTSGVHTFPAVLQSSGLYSLSSVVTVPSSSLGTQTYICNVNHKPSNTKVDKKVEPKSCDKTHTCPPCPAPEAAGGPSVFLFPPKPKDTLMISRTPEVTCVVVDVSHEDPEVKFNWYVDGVEVHNAKTKPREEQYNSTYRVVSVLTVLHQDWLNGKEYKCKVSNKALPAPIEKTISKAKGQPREPQVYTLPPSREEMTKNQVSLTCLVKGFYPSDIAVEWESNGQPENNYKTTPPVLDSDGSFFLYSKLTVDKSRWQQGNVFSCSVMHEALHNAYTQKSLSLSPGK
light: DIRMTQSPSSLSASVGDRVTIECLASEDIYSDLAWYQQKPGKSPKLLIYNANGLQNGVPSRFSGSGSGTDYSLTISSLQPEDVATYFCQQYNYFPGTFGQGTKLEIKGGSGGGGSGGEIVLTQSPGTLSLSPGERATLSCRASSGSIWYSFVSWYQQKPGQAPRLLIYADDQRASGIPDRFSGSGSGTDFTLTISRLEPEDFAVYYCQSYGINIDVVFGGGTKVEIKRTVAAPSVFIFPPSDEQLKSGTASVVCLLNNFYPREAKVQWKVDNALQSGNSQESVTEQDSKDSTYSLSSTLTLSKADYEKHKVYACEVTHQGLSSPVTKSFNRGEC
notes: DVD-Ig: outer hBEW-9E10.1 (VEGF), inner CL-33675 (PDGF), linkers GS-H10 / GS-L10(dR); Human IgG1 L234A, L235A, H435A with kappa light chain; also called 9E10.1-GS-33675; hu VEGF 9E10.1-GS-hu PDGF 33675 [hu IgG1/k]; LALA H435A
**Q.** How did the Kd (PDGF-BB) turn out when B3 was run?
**A.** 0.45 pM

**Q.** What about the kon (PDGF-BB) of the same binder?
**A.** 2e+07 M⁻¹ s⁻¹

**Q.** What about the Kd (VEGF-A) of the same binder?
**A.** 1.8 pM

**Q.** And the kon (VEGF-A)?
**A.** 9.7e+06 M⁻¹ s⁻¹

B4: 9E10.6_GS_CL-33675 (PR-1612492) (bispecific antibody, human IgG1, kappa, L234A L235A)
heavy: EVQLVQSGAEVKKPGSSVKVSCKASGYTFTNYGMYWVRQAPGQGLEWMGWIDTETGRPTYADDFKGRFTFTADKSTSTAYMELSSLRSEDTAVYYCARWSGDTTGIRGPWFAYWGQGTLVTVSSGGGGSGGGGSEVTLRESGPALVKPTQTLTLTCTFSGFSLSTYGMGVGWIRQPPGKALEWLANIWWDDDKYYNPSLKNRLTISKDTSKNQVVLTMTNMDPVDTATYYCARIESSGPKYSFDYWGQGTMVTVSSASTKGPSVFPLAPSSKSTSGGTAALGCLVKDYFPEPVTVSWNSGALTSGVHTFPAVLQSSGLYSLSSVVTVPSSSLGTQTYICNVNHKPSNTKVDKKVEPKSCDKTHTCPPCPAPEAAGGPSVFLFPPKPKDTLMISRTPEVTCVVVDVSHEDPEVKFNWYVDGVEVHNAKTKPREEQYNSTYRVVSVLTVLHQDWLNGKEYKCKVSNKALPAPIEKTISKAKGQPREPQVYTLPPSREEMTKNQVSLTCLVKGFYPSDIAVEWESNGQPENNYKTTPPVLDSDGSFFLYSKLTVDKSRWQQGNVFSCSVMHEALHNAYTQKSLSLSPGK
light: DIRMTQSPSSLSASVGDRVTITCLASEDIYSDLAWYQQKPGKSPKLLIYNANGLQNGVPSRFSGSGSGTDYTLTISSLQPEDVATYFCQQYNYFPGTFGQGTKLEIKGGSGGGGSGGEIVLTQSPGTLSLSPGERATLSCRASSGSIWYSFVSWYQQKPGQAPRLLIYADDQRASGIPDRFSGSGSGTDFTLTISRLEPEDFAVYYCQSYGINIDVVFGGGTKVEIKRTVAAPSVFIFPPSDEQLKSGTASVVCLLNNFYPREAKVQWKVDNALQSGNSQESVTEQDSKDSTYSLSSTLTLSKADYEKHKVYACEVTHQGLSSPVTKSFNRGEC
notes: DVD-Ig: outer hBEW-9E10.6 (VEGF), inner CL-33675 (PDGF), linkers GS-H10 / GS-L10(dR); Human IgG1 L234A, L235A, H435A with kappa light chain
**Q.** B4 was tested. Which Kd (PDGF-BB) did it give?
**A.** 1.2 pM

**Q.** And the kon (PDGF-BB)?
**A.** 2.4e+07 M⁻¹ s⁻¹

**Q.** And the Kd (VEGF-A)?
**A.** 2 pM

**Q.** What about the kon (VEGF-A) of the same binder?
**A.** 1.1e+07 M⁻¹ s⁻¹

B5: 9E10.1_GS_9E8.4 (PR-1612491) (bispecific antibody, human IgG1, kappa, L234A L235A)
heavy: EIQLVQSGSELKKPGASVKVSCKASGYTFTNYGMYWVKQAPGQGLEYMGWIDTETGRPTYADDFKGRFVFSLDTSVSTAYLQISSLKAEDTAVYFCARWSGDTTGIRGPWFAYWGQGTLVTVSSGGGGSGGGGSEVTLRESGPALVKPTQTLTLTCTFSGFSLSTYGMGVGWIRQPPGKALEWLANIWWDDDKYYNPSLKNRLTISKDTSKNQVVLTMTNMDPVDTATYYCARIESIGTTYSFDYWGQGTMVTVSSASTKGPSVFPLAPSSKSTSGGTAALGCLVKDYFPEPVTVSWNSGALTSGVHTFPAVLQSSGLYSLSSVVTVPSSSLGTQTYICNVNHKPSNTKVDKKVEPKSCDKTHTCPPCPAPEAAGGPSVFLFPPKPKDTLMISRTPEVTCVVVDVSHEDPEVKFNWYVDGVEVHNAKTKPREEQYNSTYRVVSVLTVLHQDWLNGKEYKCKVSNKALPAPIEKTISKAKGQPREPQVYTLPPSREEMTKNQVSLTCLVKGFYPSDIAVEWESNGQPENNYKTTPPVLDSDGSFFLYSKLTVDKSRWQQGNVFSCSVMHEALHNAYTQKSLSLSPGK
light: DIRMTQSPSSLSASVGDRVTIECLASEDIYSDLAWYQQKPGKSPKLLIYNANGLQNGVPSRFSGSGSGTDYSLTISSLQPEDVATYFCQQYNYFPGTFGQGTKLEIKGGSGGGGSGGEFVLTQSPGTLSLSPGERATLSCERSSGDIGDSYVSWYQQKPGQAPRLVIYADDQRPSGIPDRFSGSGSGTDFTLTISRLEPEDFAVYYCQSYDINIDIVFGGGTKVEIKRTVAAPSVFIFPPSDEQLKSGTASVVCLLNNFYPREAKVQWKVDNALQSGNSQESVTEQDSKDSTYSLSSTLTLSKADYEKHKVYACEVTHQGLSSPVTKSFNRGEC
notes: DVD-Ig: outer hBEW-9E10.1 (VEGF), inner hBDI-9E8.4 (PDGF), linkers GS-H10 / GS-L10(dR); Human IgG1 L234A, L235A, H435A with kappa light chain
**Q.** B5 was tested. Which Kd (PDGF-BB) did it give?
**A.** 25 pM

**Q.** And the kon (PDGF-BB)?
**A.** 6.8e+06 M⁻¹ s⁻¹

**Q.** And the Kd (VEGF-A)?
**A.** 2.2 pM

**Q.** And the kon (VEGF-A)?
**A.** 1.1e+07 M⁻¹ s⁻¹
